Results as given in article PMC11423790, “Structural Insights into the Diversity and DNA Cleavage Mechanism of Fanzor”.

Tests used:
Settings in all cases: protein: recombinant; tags: 10xHis-MBP N-terminal; blunt DNA 54 bp; R-loop
SpuFz1 [1] = target: T1, SpuFz1 (Spizellomyces punctatus ATCC 48900, UniProt A0A0L0H5U9 1-622); test: cryo-EM structure; State I, 8-bp heteroduplex; RNP purification buffer 20 mM HEPES pH 7.5, 150 mM NaCl, 2 mM MgCl2, 4.5 mM TCEP, 4 C; ternary complex assembly conditions not in the material
SpuFz1 [2] = target: T1, SpuFz1; test: cryo-EM structure; State IV, dsDNA unwound on RuvC; RNP purification buffer 20 mM HEPES pH 7.5, 150 mM NaCl, 2 mM MgCl2, 4.5 mM TCEP, 4 C; ternary complex assembly conditions not in the material
SpuFz1 [3] = target: T1, SpuFz1; test: cryo-EM structure; State V, 15-bp heteroduplex, lid down; RNP purification buffer 20 mM HEPES pH 7.5, 150 mM NaCl, 2 mM MgCl2, 4.5 mM TCEP, 4 C; ternary complex assembly conditions not in the material
SpuFz1 [4] = target: T1, SpuFz1; test: cryo-EM structure; State VI, 15-bp heteroduplex, weak lid density; RNP purification buffer 20 mM HEPES pH 7.5, 150 mM NaCl, 2 mM MgCl2, 4.5 mM TCEP, 4 C; ternary complex assembly conditions not in the material

T1 sequence (A0A0L0H5U9 entry or part of it): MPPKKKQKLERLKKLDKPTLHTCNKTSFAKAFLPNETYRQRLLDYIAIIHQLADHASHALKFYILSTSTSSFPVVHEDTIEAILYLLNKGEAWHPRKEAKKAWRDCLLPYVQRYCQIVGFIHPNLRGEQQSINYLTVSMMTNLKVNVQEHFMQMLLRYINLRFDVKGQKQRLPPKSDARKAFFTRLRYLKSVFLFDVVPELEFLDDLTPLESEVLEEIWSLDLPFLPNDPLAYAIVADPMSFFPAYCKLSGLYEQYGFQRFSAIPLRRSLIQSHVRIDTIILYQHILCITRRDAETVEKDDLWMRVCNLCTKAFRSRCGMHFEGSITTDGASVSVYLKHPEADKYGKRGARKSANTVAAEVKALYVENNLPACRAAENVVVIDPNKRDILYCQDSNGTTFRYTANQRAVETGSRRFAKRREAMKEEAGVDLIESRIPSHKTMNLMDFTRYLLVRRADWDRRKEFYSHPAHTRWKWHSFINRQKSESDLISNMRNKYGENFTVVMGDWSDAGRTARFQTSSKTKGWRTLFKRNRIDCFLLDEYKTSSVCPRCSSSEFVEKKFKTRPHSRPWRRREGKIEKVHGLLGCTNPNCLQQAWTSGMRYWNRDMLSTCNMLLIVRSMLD

B1: SpuFz1 omegaRNA + ds2 (mixed)
RNA: GUUUUCCGAGCCGGUUGUCGCGCGGUUCAAUCCCUGGUGCGGGUGCUAGUGCCAAUACCCACCGGCUCCGCACUAUCUAUAGGUUAUGA
DNA 1: ATTCGAGCTCGGTACCCGGGCATATCTATAGGTTATGAAATCAAATTACAAATA
DNA 2: TATTTGTAATTTGATTTCATAACCTATAGATATGCCCGGGTACCGAGCTCGAAT
modifications: phosphorothioates, TS partially modified, NTS unmodified
Q: Does B1 bind (SpuFz1 [1])?
A: binds

B2: SpuFz1 omegaRNA + ds3 (mixed)
RNA: B1 RNA
DNA 1: B1 DNA 1
DNA 2: B1 DNA 2
modifications: phosphorothioates, NTS partially modified, TS unmodified
Q: Does B2 bind (SpuFz1 [2])?
A: binds

B3: SpuFz1 omegaRNA + ds5 (mixed)
RNA: B1 RNA
DNA 1: B1 DNA 1
DNA 2: B1 DNA 2
modifications: phosphorothioates, TS fully modified, NTS unmodified
Q: Does B3 bind (SpuFz1 [3])?
A: binds

B4: SpuFz1 omegaRNA + ds6 (mixed)
RNA: B1 RNA
DNA 1: B1 DNA 1
DNA 2: B1 DNA 2
modifications: phosphorothioates, NTS fully modified, TS unmodified
Q: Does B4 bind (SpuFz1 [4])?
A: binds
